Test: yeast display, Sf9 membrane polyspecificity reagent, FACS + sequencing; frameworks hold sequencing errors
Outline: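 A nanobody's polyreactivity label depends on the gate it was sorted from. Yeast display cells were stained with 10% biotinylated, detergent-solubilized Sf9 membrane reagent for 1 hour at 4 °C, enriched on streptavidin microbeads and sorted by FACS. The low and high (top ~1%) gates were set on anti-HA fluorescence for expression and streptavidin fluorescence for reagent binding.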

Row | Sequence | polyreactivity (PSR sort gate)
1 | QVQLVESGGGLVQAGGSLRLSCAASGSIFKYNTMGWYRQAPGKERELVAAISSGGRTYYADSVKGRFTISRDNAKNSVYLQMNSLKPEDTAVYYCAARWSFFKTTHRNNYWGQGTQVTVSS | high polyreactivity
2 | QVQLVESGGGLVQAGGSLRLSCAASGSIFKYYAMGWYRQAPGKERELVAAIDWSGGNTYADSVKGRFTISRDNAKNTVYLQMNSLKPEDTAVYYCAADAFAVYRITSYNGSDSWGQGTQVTVSS | high polyreactivity
3 | QVQLVESGGGLVQAGGSLRLSCAASGSIFKYYAMGWYRQAPGKERELVAAISFSGGSTYYADSVKGRFTISRDNAKNTVYLQMNSLKPEDTAVYYCAVLGVWGYGYWGQGTQVTVSS | high polyreactivity
4 | QVQLVESGGGLVQAGGSLRLSCAASGSIFKYYAMGWYRQAPGKERELVAAISSGGRTYYADSVKGRFTISRDNAKNTVYLQMNSLKPEDTAVYYCNRGTVNSWARGYWGQGTQVTVSS | high polyreactivity
5 | QVQLVESGGGLVQAGGSLRLSCAASGSIFKYYAMGWYRQAPGKERELVAAISYSGGRTYYADSVKGRFTISRDNAKNTVYLQMNSLKPEDTAVYYCNAELYPWPGVVRYNYWGQGTQVTVSS | high polyreactivity
6 | QVQLVESGGGLVQAGGSLRLSCAASGSIFKYYAMGWYRQAPGKERELVAAITSGGSTSYADSVKGRFTISRDNAKNTVYLQMNSLKPEDTAVYYCAASGNSYRLRYWWSELDYWGQGTQVTVSS | high polyreactivity
7 | QVQLVESGGGLVQAGGSLRLSCAASGSIFKYYAMGWYRQAPGKERELVAAITWSGGRTNYADSVKGRFTISRDNAKNTVYLQMNSLKPEDTAVYYCNKAYPGLERWYRGLYYWGQGTQVTVSS | high polyreactivity
8 | QVQLVESGGGLVQAGGSLRLSCAASGSIFKYYAMGWYRQAPGKERELVASITSGGSTNYADSVKGRFTISRDNAKNTVYLQMNSLKPEDTAVYYCAADGVRVPRREYDYWGQGTQVTVSS | low polyreactivity
9 | QVQLVESGGGLVQAGGSLRLSCAASGSIFKYYVMGWYRQAPGKERELVAAISSGGGSTYYADSVKGRFTISRDNAKNTVYLQMNSLKPEDTAVYYCNKKYRSRWQGPFDYWGQGTQVTVSS | high polyreactivity
10 | QVQLVESGGGLVQAGGSLRLSCAASGSIFLAKAMGWYRQAPGKERELVAAINYADSVKGRFTISRDNAKNTVYLQMNSLKPEDTAVYYCYSKYDYWGQGTQVTVSS | low polyreactivity
11 | QVQLVESGGGLVQAGGSLRLSCAASGSIFLANAMGWYRQAPGKERELVAAINYADSVKGRFTISRDNAKNTVYLQMNSLKPEDTAVYYCYSKYDYWGQGTQVTVSS | low polyreactivity
12 | QVQLVESGGGLVQAGGSLRLSCAASGSIFLAYAMGWYRQAPGKERELVATISSGGSTNYADSVKGRFTISRDNAKNTVYLQMNSLKPEDTAVYYCIADYSIPGYYWPYDYWGQGTQVTVSS | low polyreactivity
13 | QVQLVESGGGLVQAGGSLRLSCAASGSIFLDYAMGWYRQAPGKERELVAGITISGGSTYYADSVKGRFTISRDNAKNTVYLQMNRLKPEDTAVYYCSKVAPRSSSSQEYYYWGQGTQVTVSS | low polyreactivity
14 | QVQLVESGGGLVQAGGSLRLSCAASGSIFLDYAMGWYRQAPGKERELVAGITISGGSTYYAVSVKGRFTISRDNAKNTVYLQMYSLNREDTAVYYCAKVAPRSSSSQEYYYWGQGTQVTVSS | low polyreactivity
15 | QVQLVESGGGLVQAGGSLRLSCAASGSIFLFYALGWSRQAPGKERELVATINWSGCTTYYADSVKGRFTISRDNAKNTVYFQMNSLKPEDNAFYYCAAYSVYGRYGRTFYYWGQGTQVTVSS | high polyreactivity
16 | QVQLVESGGGLVQAGGSLRLSCAASGSIFLGNAMGWYRQAPGKERELVAAISSITGRTYYAESVKGRFTISRDNAKNTVYLQMNSLKPEDTAVYYCNKVKRSFIVKTDDYWGQGTQVTVSS | high polyreactivity
17 | QVQLVESGGGLVQAGGSLRLSCAASGSIFLHNAMGWYRQAPGKERELVAAISGTGGRTYYADSVKGRFTISRDNAKNTVYLQMNSLKPEDTAVYYCAKTLRDPYRYDYWGQGTQVTVSS | high polyreactivity
18 | QVQLVESGGGLVQAGGSLRLSCAASGSIFLIYAMGGYRPAPGKERELVAGINWSGSRTYYADSVKGRFTISRDNAKNTVYLQMNSLKPEDTAVYYCAARVRRPLYSAYDSWGQGTQVTVSS | low polyreactivity
19 | QVQLVESGGGLVQAGGSLRLSCAASGSIFLKYAMGWYRQAPGKERELVATISRGGSTNYADSVKGRFTISRDNAKNTVYLQMNSLKPEDTAVYYCAAKYGRPYGTYGYKSLLVGDMYYWGQGTQVTVSS | high polyreactivity
20 | QVQLVESGGGLVQAGGSLRLSCAASGSIFLLYAMGWYRQAPGKERELVAAISLSTGNTYYADSVKGRFTISRDNAKNTVYLQMNSLKPEDTAVYYCAAEDYWSAYYWGQGTQVTVSS | high polyreactivity
21 | QVQLVESGGGLVQAGGSLRLSCAASGSIFLPNAMGWYRQAPGKERELVARITSTGSTNYADSVKGRFTISRDNAKNTVYLQMNSLKPEDTAVYYCAADYYPFYVKREQAYPDIPYDSWGQGTQVTVSS | low polyreactivity
22 | QVQLVESGGGLVQAGGSLRLSCAASGSIFLPYAMGWYRQAPGKEREFVAAIRWSTGRTFYADSVKGRVTISRDNAKNTVYLQMNSLKPEDTAVYYCAAKYYDSWYTYRYDYWGQGTQVTVSS | high polyreactivity

Row | Sequence | polyreactivity (PSR sort gate)
23 | QVQLVESGGGLVQAGGSLRLSCAASGSIFLPYAMGWYRQAPGKERELVAAITWGGDSTYADSVKGRFTISRDNAKNTVYLQMNSLKPEDTAVYYCAAGAGFESDYWGQGTQVTVSS | low polyreactivity
24 | QVQLVESGGGLVQAGGSLRLSCAASGSIFLRIAMGWYRQAPGKERELVARIRGGGSTYYADSVKGRFTISRDNAKNTVYLQMNSLKPEDTAVYYCAKDYYKYADGYDYWGQGTQVTVSS | high polyreactivity
25 | QVQLVESGGGLVQAGGSLRLSCAASGSIFLRYAMGWYRQAPGKERELVAAISGRGGSTYYADSVKGRFTISRDNAKNTVYLQMNSLKPEDTAVYYCAAYRGRSLEYDYWGQGTQVTVSS | high polyreactivity
26 | QVQLVESGGGLVQAGGSLRLSCAASGSIFLRYTMGWYRQAPGKETEFVAAITWTADSTYYADSVKGRFTISRDNAKNTVYLQMNSLKPEDTAVYYCAASYSTIWTLYYYWGQGTQVTVSS | low polyreactivity
27 | QVQLVESGGGLVQAGGSLRLSCAASGSIFLSYNMGRYRQAPGKERELVAAITSGGSTKYADSVKGRFTISRDNAKNTVYLQMNSLKPEDTAVYYCNATPYSRLGYWGQGTQVTVSS | high polyreactivity
28 | QVQLVESGGGLVQAGGSLRLSCAASGSIFLVNALGWYRQAPGKERELVAAISWSGGSTYYAESVKGRFTISRDNAKNTVYLQMKSLKPEDTAVYYCAADWFAANYYVNTVSALDYWGLGTQVTVSS | low polyreactivity
29 | QVQLVESGGGLVQAGGSLRLSCAASGSIFLVYAMGWYRQAPGKERELVAAISQRVGRTYYADSVKGRFTISRDNAKNTVYLQMNSLKPEDTAVYYCNARVYDPTRGFNYWGQGTQVTVSS | high polyreactivity
30 | QVQLVESGGGLVQAGGSLRLSCAASGSIFLVYAMGWYRQAPGKERELVAVISRGGITNYADSVKGRFTISGDNAKNTVYLQMNSLKPEDTAVYYCAAEPRPSWSRYTYGYWGQGTQVTVSS | low polyreactivity
31 | QVQLVESGGGLVQAGGSLRLSCAASGSIFLYNAMGWYRQAPGKERELVATITSSTGSTYYADSVKGRFTISRDNAKNTVYLQMNSLKPEDTAVYYCATRESRRQRRYYYWGQGTQVTLSS | high polyreactivity
32 | QVQLVESGGGLVQAGGSLRLSCAASGSIFLYYAMGWYRQAPGKERELVAGIRRGGRTNYADSVKGRFTISRDNAKNTVYLQMNSLKPEDTAVYYCAKGGYWGQGTQVTVSS | high polyreactivity
33 | QVQLVESGGGLVQAGGSLRLSCAASGSIFLYYAMGWYRQAPGKERELVATITKGGGSTYYADSVKGRFTISRDNAKNTVYLQMNSLKPEDTAVYYCAADAAHSEYDYWGQGTLVTVSS | high polyreactivity
34 | QVQLVESGGGLVQAGGSLRLSCAASGSIFNANAMGWYRQAPGKEWELVARITRGGRTNYADSVKGRFTISRDNAKNTVYLQMNSLKPEDTAVYYCAAVYYVGFPHKYDYWGQGTQVNVSS | low polyreactivity
35 | QVQLVESGGGLVQAGGSLRLSCAASGSIFNAYVMGWYRQAPGKERELVAAISRSGGRTYYADSVKGRFTISRDNAKNTVYLQMNSLKPEDNAVYYCAADYGGPYGQLDYWGQGTQVTVSS | high polyreactivity
36 | QVQLVESGGGLVQAGGSLRLSCAASGSIFNGNAMGWYRQAPGKERELVAAISRNGGSTYYADSVKGRFTISRDNAKNTVYLQMNSLKPEDTAVYYCAVRKRPHGYLAFGYWGQGTQVTVSS | low polyreactivity
37 | QVQLVESGGGLVQAGGSLRLSCAASGSIFNGNAMGWYRQAPGKERELVAAISRNRGSTYYADSVKGRFTISRDNAKNTVYLQMNSLKPEDTAVYYCPTDLTVYYSYYWMYWGQGTQVTVSS | low polyreactivity
38 | QVQLVESGGGLVQAGGSLRLSCAASGSIFNGNAMGWYRQAPGKERELVAAITRRGGRTYYADSVKGRFTISRDNAKNTVYLQMNSLKPDDTAVYYCNAYSKAVQGGYDYWGQGTQVTVSS | high polyreactivity
39 | QVQLVESGGGLVQAGGSLRLSCAASGSIFNGYVMGWYRQAPGKERELVAAISGSGGRTYYADSVKGRFTISRDNAKNTVYLQMNSLKPEDTAVYYCAAYPDLRDSRRIRYGYNYWGQGTQVTVSS | high polyreactivity
40 | QVQLVESGGGLVQAGGSLRLSCAASGSIFNGYVMGWYRQAPGKERELVASINRGGTTNYADSVKGRFTISRDNAKNTVYLQMNSLKPEDTAVYYCAVDDDANSLGGYYVLFDYWGQGTQVTVSS | low polyreactivity
41 | QVQLVESGGGLVQAGGSLRLSCAASGSIFNHYAMGWYRQAPGKERELVATITDGGSTYYADSVKGRFTISRDNAKNTVYLQMNSLKPEDTAVYYCATDRRRFWVIYYYWGQGTQVTVSS | low polyreactivity
42 | QVQLVESGGGLVQAGGSLRLSCAASGSIFNINAMGWYRHAPGKERELVAVITSRDGRTYYADSVKGRFTISRDNAKNTVYLQMNSLKPEDTAVYYCAADVVNRHYYFWGQGTQVTVSS | low polyreactivity
43 | QVQLVESGGGLVQAGGSLRLSCAASGSIFNIYDMGWSRQAPGKERELVAGISWDGDSTYYADSVKGRFTISRDNAKNTVYLQMNSLKPEDTAVEYCAAVYTRAHISYYYWGQGTQVTVSS | high polyreactivity

Reference: the nanobody polyreactivity screen of Harvey et al. (2022)
